# Laboratory results taken from the supplement of paper PMC10567573.
# B1: ZNF511 (parent)
# chain: YEHHYHTLHGNVCSFCKRAFPSGH
# Variants of: B1
# Assay: protein stability index of a GFP-peptide fusion (GPS, HEK-293T) (PSI 1-6); higher = more stable
# Conditions: c terminus: a fixed tail appended
# 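Further: lentivirally expressed fusions sorted by FACS into six bins by GFP to DsRed ratio, PSI derived from sequencing read proportions per bin multiplied by bin number.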
row,Variant,protein stability index
1,YEHHYHTLHGNVCSFCKYAFPSGH,2.24
2,YEHHYHTLHGNVCSFCKQAFPSGH,1.53
3,YEHHYHTLHGNVCSFCKGAFPSGH,2.27
4,YEHHYHTLHGNVCSFCKKAFPSGH,2.23
5,YEHHYHTLHGNVCSFCKHAFPSGH,2.29
6,YEHHYHTLHGNVCSFCKFAFPSGH,1.94
7,YEHHYHTLHGNVCSFCKPAFPSGH,2.87
8,YEHHYHTLHGNVCSFCKLAFPSGH,2.17
9,YEHHYHTLHGNVCSFCKDAFPSGH,2.46
10,YEHHYHTLHGNVCSFCKWAFPSGH,1.79
11,YEHHYHTLHGNVCSFCKNAFPSGH,2.37
12,YEHHYHTLHGNVCSFCKCAFPSGH,1.89
13,YEHHYHTLHGNVCSFCKMAFPSGH,1.96
14,YEHHYHTLHGNVCSFCKEAFPSGH,2.14
15,YEHHYHTLHGNVCSFCKIAFPSGH,1.6
16,YEHHYHTLHGNVCSFCKTAFPSGH,2.29
17,YEHHYHTLHGNVCSFCKSAFPSGH,2.26
18,YEHHYHTLHGNVCSFCKVAFPSGH,1.73
19,YEHHYHTLHGNVCSFCKAAFPSGH,2.06
20,YEHHYHTLHGNVCEFCKRAFPSGH,2.53
21,YEHHYHTLHGNVCRFCKRAFPSGH,2.87
22,YEHHYHTLHGNVCIFCKRAFPSGH,2.53
23,YEHHYHTLHGNVCCFCKRAFPSGH,2.39
24,YEHHYHTLHGNVCVFCKRAFPSGH,1.38

row,Variant,protein stability index
1,YEHHYHTLHGNVCPFCKRAFPSGH,3.3
2,YEHHYHTLHGNVCFFCKRAFPSGH,2.03
3,YEHHYHTLHGNVCTFCKRAFPSGH,2.23
4,YEHHYHTLHGNVCWFCKRAFPSGH,2.53
5,YEHHYHTLHGNVCGFCKRAFPSGH,1.88
6,YEHHYHTLHGNVCKFCKRAFPSGH,2.3
7,YEHHYHTLHGNVCDFCKRAFPSGH,2.4
8,YEHHYHTLHGNVCLFCKRAFPSGH,2.04
9,YEHHYHTLHGNVCMFCKRAFPSGH,2.3
10,YEHHYHTLHGNVCYFCKRAFPSGH,3.38
11,YEHHYHTLHGNVCAFCKRAFPSGH,2.94
12,YEHHYHTLHGNVCHFCKRAFPSGH,2.31
13,YEHHYHTLHGNVCNFCKRAFPSGH,2.57
14,YEHHYHTLHGNVCQFCKRAFPSGH,2.88
15,YEHHYHTLHGNVCSFCKRAAPSGH,2.41
16,YEHHYHTLHGNVCSFCKRAPPSGH,2.34
17,YEHHYHTLHGNVCSFCKRASPSGH,2.96
18,YEHHYHTLHGNVCSFCKRATPSGH,2.68
19,YEHHYHTLHGNVCSFCKRALPSGH,2.27
20,YEHHYHTLHGNVCSFCKRARPSGH,2.12
21,YEHHYHTLHGNVCSFCKRAQPSGH,2.37
22,YEHHYHTLHGNVCSFCKRAHPSGH,3.37
23,YEHHYHTLHGNVCSFCKRANPSGH,3.13
24,YEHHYHTLHGNVCSFCKRAIPSGH,2.23

row,Variant,protein stability index
1,YEHHYHTLHGNVCSFCKRAEPSGH,2.4
2,YEHHYHTLHGNVCSFCKRAWPSGH,2.42
3,YEHHYHTLHGNVCSFCKRAVPSGH,2.58
4,YEHHYHTLHGNVCSFCKRAGPSGH,2.82
5,YEHHYHTLHGNVCSFCKRAKPSGH,2.64
6,YEHHYHTLHGNVCSFCKRAMPSGH,2.38
7,YEHHYHTLHGNVCSFCKRADPSGH,3.27
8,YEHHYHTLHGNVCSFCKRACPSGH,2.55
9,YEHHYHTLHGNVCSFEKRAFPSGH,2.5
10,YEHHYHTLHGNVCSFRKRAFPSGH,2.17
11,YEHHYHTLHGNVCSFDKRAFPSGH,2.17
12,YEHHYHTLHGNVCSFPKRAFPSGH,2.02
13,YEHHYHTLHGNVCSFSKRAFPSGH,1.71
14,YEHHYHTLHGNVCSFFKRAFPSGH,1.99
15,YEHHYHTLHGNVCSFVKRAFPSGH,2.14
16,YEHHYHTLHGNVCSFAKRAFPSGH,2.05
17,YEHHYHTLHGNVCSFNKRAFPSGH,2.12
18,YEHHYHTLHGNVCSFQKRAFPSGH,2.26
19,YEHHYHTLHGNVCSFGKRAFPSGH,2
20,YEHHYHTLHGNVCSFMKRAFPSGH,2.01
21,YEHHYHTLHGNVCSFWKRAFPSGH,1.62
22,YEHHYHTLHGNVCSFYKRAFPSGH,2.09
23,YEHHYHTLHGNVCSFTKRAFPSGH,2.4
24,YEHHYHTLHGNVCSFHKRAFPSGH,1.82

row,Variant,protein stability index
1,YEHHYHTLHGNVCSFKKRAFPSGH,2.35
2,YEHHYHTLHGNVCSFLKRAFPSGH,2.1
3,YEHHYHTLHGNVCSFIKRAFPSGH,1.86
4,YEHHYHTLHGNVLSFCKRAFPSGH,1.5
5,YEHHYHTLHGNVHSFCKRAFPSGH,1.9
6,YEHHYHTLHGNVWSFCKRAFPSGH,1.52
7,YEHHYHTLHGNVKSFCKRAFPSGH,2.04
8,YEHHYHTLHGNVISFCKRAFPSGH,2.6
9,YEHHYHTLHGNVVSFCKRAFPSGH,1.92
10,YEHHYHTLHGNVASFCKRAFPSGH,2.18
11,YEHHYHTLHGNVESFCKRAFPSGH,2.36
12,YEHHYHTLHGNVFSFCKRAFPSGH,1.5
13,YEHHYHTLHGNVQSFCKRAFPSGH,2.63
14,YEHHYHTLHGNVYSFCKRAFPSGH,1.78
15,YEHHYHTLHGNVPSFCKRAFPSGH,2.11
16,YEHHYHTLHGNVMSFCKRAFPSGH,1.83
17,YEHHYHTLHGNVGSFCKRAFPSGH,2.54
18,YEHHYHTLHGNVNSFCKRAFPSGH,2.67
19,YEHHYHTLHGNVSSFCKRAFPSGH,2.22
20,YEHHYHTLHGNVDSFCKRAFPSGH,2.29
21,YEHHYHTLHGNVRSFCKRAFPSGH,2.17
22,YEHHYHTLHGNVTSFCKRAFPSGH,1.97
